Earlier results in article PMC7830187.

Target: synthetic peptide

## intersectin-1 SH3 (from UniProt Q15811)
  Kd: 50 µM
